Source: the supplement of paper PMC9170038

How the values were obtained:
[1] = tested on: MS2 coat protein; assay: apparent KD of MS2 coat protein; higher = weaker reporter binding; conditions: Eterna round: R101
Procedure: (§1)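 RNA-MaP: designed FMN/MS2 RNA switches (84 nt design region) are transcribed on-chip within common flanks and titrated with SNAP-549-labelled MS2 coat protein (about 1-3000 nM) in 100 mM Tris pH 7.5, 80 mM KCl, 4 mM MgCl2, without or with 200 uM FMN. Median apparent KD per design; activation ratio = KD,OFF / KD,ON.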

[2] = tested on: MS2 coat protein; assay: apparent KD of MS2 coat protein; designed switch direction (-1 OFF switch, 1 ON switch): 1; higher = weaker reporter binding; conditions: Eterna round: R98
Procedure: as §1

[3] = tested on: MS2 coat protein; assay: apparent KD of MS2 coat protein, switch ON state; designed switch direction (-1 OFF switch, 1 ON switch): 1; higher = weaker reporter binding; conditions: FMN input: 0 or 200 uM; Eterna round: R93 (includes R88 designs)
In short: (§2)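 Normalised binding curves from single clusters were fitted, and the median fit for each design is given as apparent KD. The clusters held designed RNA switches transcribed on-chip from Illumina sequencing clusters. These were titrated with SNAP-549-labelled MS2 coat protein (twofold steps from 0.7 or 1.5 nM to 3 µM, 0.8–1.5 h to 10–20 min per step) in 100 mM Tris-HCl pH 7.5, 80 mM KCl, 4 mM MgCl2, without or with constant ligand.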

[4] = tested on: MS2 coat protein; assay: apparent KD of MS2 coat protein, switch OFF state (with FMN for OFF switches, without FMN for ON switches); designed switch direction (-1 OFF switch, 1 ON switch): 1; higher = weaker reporter binding; conditions: FMN input: 0 or 200 uM; Eterna round: R93 (includes R88 designs)
In short: as §2

Sequence | apparent KD of MS2 coat protein ([2]; input ligand: FMN 200 uM) [µM] | apparent KD of MS2 coat protein ([2]; input ligand: none) [µM] | other results
AGAGCUGCUCAGAAGGAGGAUCACCCUUUCGAAAGAAAUACGGAGGCUGAAAAGCCUCCGAAAUCCUAGGAUAUGAGCAGCUCA [#SharedSequence - IExNG2: 3] (puzzle (switch architecture): Inverted Exclusion NG 2) | – | – | apparent KD of MS2 coat protein ([1]; input ligand: FMN 200 uM): 0.00743 µM; apparent KD of MS2 coat protein ([1]; input ligand: none): 0.791 µM
CCUGCACUUCAAGGAUAUCCAGUCGAAACGACUGGAGAAGGUGAGGAUCACCCACCUAGCCUGACGAAAGUCAGGCAUGCAGGA [#SharedSequence - ExNG1-3] (puzzle (switch architecture): Exclusion NG 1) | – | – | apparent KD of MS2 coat protein ([1]; input ligand: FMN 200 uM): 0.00806 µM; apparent KD of MS2 coat protein ([1]; input ligand: none): 0.00862 µM
CGCUAUGACAUGAGGAUCACCCAUGUAUACAUGGGAAUGACGUAGGAUAUGCAGAAGAUUAAAGUGCAGAAGGACGGCUUUGCG [JR #DistanceClose #Static #NP SSNG3 Sub063] (puzzle (switch architecture): Same State NG 3) | – | – | apparent KD of MS2 coat protein ([1]; input ligand: FMN 200 uM): 0.214 µM; apparent KD of MS2 coat protein ([1]; input ligand: none): 0.433 µM
CUGCGAUUCUUAGGAUAUCGAGUGGAAUACACUCGAGAAGGAAGAAUAACCUGAGGAUCACCCAGGUAAUACUGAAGCAGAAUA [Same State NG1 - A3C, U17G Submission 9C] | 0.0234 | 0.0327 | –
UGUAUUAAUGGAGGAUAUCAAUAUCAAACAUGAGGAUCACCCAUGUUGAGGAUCACCCAUGUCCAUGAGAAGGCUGGCGUACGU [My 19th design] (puzzle (switch architecture): Same State NG 2) | – | – | apparent KD of MS2 coat protein ([1]; input ligand: FMN 200 uM): 0.0109 µM; apparent KD of MS2 coat protein ([1]; input ligand: none): 0.00937 µM
CAUGUCCUCACAGGAUAUGCACCACUUUGUGGUGCAGAAGGGUGGAAACAUGAGGAUCACCCAUGUGGACAUGAUAUAUUUAAU [Denovo 7] | 0.0224 | 0.164 | –
GGAUCCAUCACAGGAUAUGCUGGACUUUGUCCAGCAGAAGGGUGACAUGAGGAUCACCCAUGUACAAAGGAUCCUAUAUUUAAU [Denovo 28] | 0.0452 | 0.377 | –
GGACGUCACAUUAACAUGAGGAUCACCCAUGUCAAAAGACAUGAGGAUAUGGAUCCUAAUUGGAUCCAGAAGGCAUGGACGUCC [EliMod 1 - Jieux - Same State NG 3] | 0.0389 | 0.68 | –
GGUCCAUCAUGAGGAUAUGGCACCUUAUUGGUGCCAGAAGGCAUGUCUUUUGACAUGAGGAUCACCCAUGUAAUAAAUUGGACC [Pyrimidine booster 6] | 0.13 | 1.92 | –
AGGAGAAAUGUAGGAUAUAUAUAUAUAUAUGGGCAAAGCGCAUAUAUAUAUAUAGAAGGACAUGAGGAUCACCCAUGUUUCCCU [#Lowering the energy 11] (puzzle (switch architecture): Small Loop Exclusion NG 1) | – | – | apparent KD of MS2 coat protein ([1]; input ligand: FMN 200 uM): 0.0109 µM; apparent KD of MS2 coat protein ([1]; input ligand: none): 0.0108 µM
UCACUCACGUCAGGAUAUGGAUCGGAAAACGAUCCAGAAGGGACCUGCAAACGUGAGGAUCACCCACGUUCCAAUAACGAGUGA [SameSame 11 - Jieux - Same State NG 1] | 0.0297 | 0.0354 | –
AUAGGUUAAGGAGGAUAUAGAGGGAGAAGUAAACAUGAGGAUCACCCAUGUAUUUAAUUAGUUUACUAGAAGGCUUGUGAUUGU | 0.0509 | 0.0459 | –
CGAGACACUUGAGGAUAUGCUCAGGAUAACUGAGCAGAAGGCAGGAAAACCUGAGGAUCACCCAGGUAACUGGAAAGUCUCGAA [Same State NG1 - A3C, U17G Submission 5F-G46A] | 0.0169 | 0.0179 | –
AAGAUACUUACAGGAUAUAGGGCAGAGGGUGCCCUAGAAGGGUGAACAUGAGGAUCACCCAUGUAUGUAUCAGAUUAGAAGGCA [Inleesti] | 0.0634 | 0.0433 | –
CAGCAAUUCUUAGGAUAUGCUCAGGAAUACUGAGCAGAAGGAAGAUAUACCUGAGGAUCACCCAGGUUAAACUGAAGCUGAAUA [Same State NG1 - A3C, U17G Submission 7B] | 0.0174 | 0.0157 | –
AAAUAAAAUAUAGGAUAUGGAAACAUGAGGAUCACCCAUGUAAAAUAAAAUAAAUAAUAAUAUAACCAGAAGGAUAAAAUAUAA [LRO002_SS NG 2] | 0.0361 | 0.0339 | –
GCACUCAAGUUAGGAUAUGGAUCGGAAACCGAUCCAGAAGGAACACGAAAACAUGAGCAUCAGCCGUGUUCCAGAAACGAGUGC [SameSame 14 - Jieux - Same State NG 1] | 0.347 | 0.917 | –
GUGCACACUCGAGGAUAUCGGAGAUUUCUCCUUCGAGAAGGCGAUUCGUGCCGUGUUAUUCUGGACAUGAGGAUCACCCAUGUG [LRO026_SS NG 1 mod JR_SSNG1_Sub034] | 0.0354 | 0.11 | –
AAAACAUGAGGAUCACCCAUGUAAAGUUCGGAAAGUUAGAGUGAGGAUAUACAAAUUUUUAUUUAGUAGAAGGCACUGGGUACA [JR_SSNG3_Sub032Nu] | 0.0248 | 0.0267 | –

Sequence | apparent KD of MS2 coat protein ([2]; input ligand: FMN 200 uM) [µM] | apparent KD of MS2 coat protein ([2]; input ligand: none) [µM] | other results
AAAACAUGAGGAUCACCCAUGUAUAGAUCGGUUGUUAGGAGUGAGGAUAUGCUUAAAAUAAGGUAGCAGAAGGCACUGGGUACA [JR_SSNG3_Sub071] | 0.0236 | 0.0153 | –
UAUAUAUGGUGAGGAUAUGCAAAGGAUCACCUUGUAGAAGGCAUCAGGGUAGAAGGUGCAAGGAUCACCUGUAAGGAUAUAUCC [pwkr2 ssNG1 DX.25] | 0.447 | 1.56 | –
AGAAUGACAUGAGGAUCACCCAUGUUGGGAAAACCCGUAACUCAGGAUAUGUACGCGAAAGACCGACAGAAGGGAGAUCUACAC [Amaes] | 0.0433 | 0.0374 | –
CUGCAAUUCUUAGGAUAUGCUCAGGAUAACUGAGCAGAAGGAAGAUAUACCUGAGGAUCACCCAGGUUAAACUGGAGCAGAAUA [Same State NG1 - A3C, U17G Submission 8B] | 0.0336 | 0.179 | –
AAAAAACAUGAGGAUCACCCAUGUAAAAUUAUGGGAGGAUAUGGAAACACGAAAGUGAAACCAGAAGGCCUAAAAG [77%, Mat - Mod of Eli, 11] | – | – | apparent KD of MS2 coat protein [3]: 0.0251 µM; apparent KD of MS2 coat protein [4]: 0.0497 µM
AAAAAACAUGAGGAUCACCCAUGUGAGAACAUGGGAGGAUAUACAAGGAUGAGAGUCAAGGUAGAAGGCCUAAGAA [Garnet 70] | – | – | apparent KD of MS2 coat protein [3]: 0.0761 µM; apparent KD of MS2 coat protein [4]: 0.0485 µM
AUAAAAUAAAAGGAGGAUAUCCUUAAUAAAACAUGAGGAUCACCCAUGUAAAAAAUAAUAAAAUGGGAGAAGGCCUAAAAUAAAU [SS2 M 26] | – | – | apparent KD of MS2 coat protein [3]: 0.0242 µM; apparent KD of MS2 coat protein [4]: 0.0642 µM
UGAUCGCUUGGAGGAUAUCCAACUAUCAUAGUUGGAGAAGGCCAAGCUACAGAGCUAAGCUUGGAAGUCACUUCCGAUCAACAC [pwkr ssNG1 F9.4.3] | 0.0497 | 0.0591 | –
AGAAAUAAAACACAGGAUAUCCAAAAGAAAACAUGAGGAUCACCCAUGUAAAAGAAAAUAAAAUGGGAGAAGGGUGAAAAUAAAG [Breaking Jandersonlee's winner (80%)] | – | – | apparent KD of MS2 coat protein [3]: 0.038 µM; apparent KD of MS2 coat protein [4]: 0.0526 µM
GUAGCAUACCGAGGAUAUUCAUAUAUGAAAAUAACAUGAGGAUCACCCAUGUGGCGAAAGCCUUGGGAGAAGGCGGAAUGCUAC [Xeinanis 75 22] | 0.0344 | 0.49 | –
AGAAAACAUGAGGAUCACCCAUGUGACAAUAUGGGAGGAUAUACAAAGACGAAAGUCGAAGUAGAAGGCCUAAAGA [Garnet 52] | – | – | apparent KD of MS2 coat protein [3]: 0.0261 µM; apparent KD of MS2 coat protein [4]: 0.0697 µM
UUUACAUGAGGAUCACCCAUGUCUGUCACGCGUGUGUGCAAUCAGGAUAUGAUCUCAAGAAUGAAUUAGAAGGGAUAACGUGAG [Attempt 5] | 0.354 | 0.366 | –
AAAAGACAUGAGGAUCACCCAUGUCAAAAGACAUGAGGAUAUGUACAGACUUCGGUCUGUACAGAAGGCAUGAAAA [SS1 - 1066] | – | – | apparent KD of MS2 coat protein [3]: 0.0138 µM; apparent KD of MS2 coat protein [4]: 0.0236 µM
AAACCACAUGAGGAUCACCCAUGUAAAAAUAUGGGAGGAUAUCGGAAUAAAAUAAAGAAACGAGAAGGCCUAAAAA [59%, Flamingo, 5] | – | – | apparent KD of MS2 coat protein [3]: 0.0337 µM; apparent KD of MS2 coat protein [4]: 0.472 µM
GAAAAACAUGAGGAUCACCCAUGUGAGAAUAUGGGAGGAUAUACAAGGACGAAAGUCAAGGUAGAAGGCCUAAAAG [Mat - Same State 1 - Eli mod - 28] | – | – | apparent KD of MS2 coat protein [3]: 0.0343 µM; apparent KD of MS2 coat protein [4]: 0.155 µM
AGGAAACAUGAGGAUCACCCAUGUAAAAAAAUGGGAGGAUAUACUAGAAGAAACAAAAUAGUAGAAGGCCUAAAAA [75%, Ex sub1, 27] | – | – | apparent KD of MS2 coat protein [3]: 0.0189 µM; apparent KD of MS2 coat protein [4]: 0.0749 µM
GACAAACAUGAGGAUCACCCAUGUAGAAAUAUGGGAGGAUAUACAAAGACGAAAGUCAAAGUAGAAGGCCUAAAAG [77%, Mat - Mod of Eli - With 1 more C's] | – | – | apparent KD of MS2 coat protein [3]: 0.0217 µM; apparent KD of MS2 coat protein [4]: 0.079 µM
UGGAUGGUAUGAGGAUAUGCGCGCGAAACGCGCGCAGAAGGCAUGUCAAUAGACAUGAGGAUCACCCAUGUAUUAUCCAUCCAA [MatMod 9 - Jieux - Same State NG 1] | 0.0394 | 0.3 | –
